This assay addresses PD-L1 (Homo sapiens, UniProt Q9NZQ7). Kind of assay: In vitro autoradiography blocking study in human lung tumor and xenograft tissue sections. The conditions noted are these: A02 0.025-25 nM, non-PD-L1 binding adnectin 25 nM, 1 hour room temperature. More on the design: PD-L1-positive L2987 human lung carcinoma cells or PD-L1-negative HT-29 human colorectal adenocarcinoma cells; endogenous in cells; host or cells: L2987 human lung carcinoma cells (HT-29 as PD-L1-negative control). The procedure: Human lung tumor tissues were embedded in OCT and chilled in 2-methylbutane for 2-5 minutes until frozen. The samples were stored in −80° C. degree freezer until use. Human xenograft tissues were also included in the assay. Mice bearing bilateral xenografts were produced by introducing 4×10^6 PD-L1(+) L2987 cells and 1.5×10^6 PD-L1(−) HT-29 t cells subcutaneously into opposite flanks of nu/nu mice. Once resulting xenograft tumors reached appropriate size (approx. 200-300 mm^3) mice were anesthetized with 2% isoflurane and sacrificed via cervical dislocation. Fresh tumor tissues were excised, immersed into OCT and chilled in 2-methylbutane for 2-5 minutes until frozen. The tissues were then wrapped in foil/ZIPLOC® bag and stored at −80° C. until use. For all tissues (human lung tumor and xenografts) sections of 5 μm thickness (collected as 2 sections/slide) were cut using a cryostat, thaw-mounted on glass microscope slides, and allowed to air dry for approximately 30 minutes.
Blocking studies with cold (unlabeled) A02 adnectin at 0.025 nM, 0.25 nM, 2.5 nM and 25 nM respectively and 25 nM non-PD-L1 binding adnectin were conducted using the following conditions. […] Autoradiography signal from tissue-associated radioactivity was quantified from these ROIs.
For orientation: In xenograft studies the graft and the host belong to different species.

Sequence of PD-L1 (Q9NZQ7 19-290): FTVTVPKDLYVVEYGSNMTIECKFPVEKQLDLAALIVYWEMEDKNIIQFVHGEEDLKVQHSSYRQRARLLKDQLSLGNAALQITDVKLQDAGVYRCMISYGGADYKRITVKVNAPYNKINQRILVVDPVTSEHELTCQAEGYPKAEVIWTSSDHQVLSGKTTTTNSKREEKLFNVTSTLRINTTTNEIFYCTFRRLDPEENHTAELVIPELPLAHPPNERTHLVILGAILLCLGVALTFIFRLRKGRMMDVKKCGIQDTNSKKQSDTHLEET

B1: A02 adnectin: anti-PD-L1 Adnectin, SEQ ID NO: 2, cold (unlabeled) (protein)
chain: EVVAATPTSLLISWSYDGPIDRYYRITYGETGGNSPVQEFTVPPDQKTATISGLKPGVDYTITVYAVRLEEAHYNREFPISINYRTPC
modifications: Synthetic 18F-radiolabeled PD-L1 Adnectin, A02
As to B1, the “displacement / blockade of 0.25 nM ^18F-A02 adnectin radioligand compared to total binding” value is given as “dose dependent displacement”.

For the origin of these results see patent US11229713B2, “Methods and compositions for 18F-radiolabeling of biologics” (BRISTOL-MYERS SQUIBB COMPANY, priority 2014, dated 2022).
